This test addresses FtsZ-F268C labeled with fluorescein 5-maleimide (donor) or tetramethylrhodamine 5-maleimide (acceptor) (E. coli) (UniProt P0A9A6).

The results in this text go back to publication PMC5473857.

B1: FtsA-R286W (FtsA*) from E. coli (natural protein)
chain: MIKATDRKLVVGLEIGTAKVAALVGEVLPDGMVNIIGVGSCPSRGMDKGGVNDLESVVKCVQRAIDQAELMADCQISSVYLALSGKHISCQNEIGMVPISEEEVTQEDVENVVHTAKSVRVRDEHRVLHVIPQEYAIDYQEGIKNPVGLSGVRMQAKVHLITCHNDMAKNIVKAVERCGLKVDQLIFAGLASSYSVLTEDERELGVCVVDIGGGTMDIAVYTGGALRHTKVIPYAGNVVTSDIAYAFGTPPSDAEAIKVRHGCALGSIVGKDESVEVPSVGGRPPWSLQRQTLAEVIEPRYTELLNLVNEEILQLQEKLRQQGVKHHLAAGIVLTGGAAQIEGLAACAQRVFHTQVRIGAPLNITGLTDYAQEPYYSTAVGLLHYGKESHLNGEAEVEKRVTASVGSWIKRLNSWLRKEF
In turn, B1 came in with an FRET assay of subunit exchange of FtsZ protofilaments at steady state with FtsA*, pH 6.5: reaction time τ (13.1 s for FtsZ alone) of 38 s.
